Source: paper PMC8761896 (2021)

B1: germline reverted VRC01 (VRC01gl) Fab (Fab, V domains shown)
VH: not shown
VL: EIVLTQSPATLSLSPGERATLSCRASQSVSSYLAWYQQKPGQAPRLLIYDASNRATGIPARFSGSGSGTDFTLTISSLEPEDFAVYYCQQYEFFGQGTKLEIK
B2: VRC01gl Fab with comL ('VQ' insertion at 103aL and 103bL, L104VL, E105DL) (Fab, V domains shown)
VH: not shown
VL: EIVLTQSPATLSLSPGERATLSCRASQSVSSYLAWYQQKPGQAPRLLIYDASNRATGIPARFSGSGSGTDFTLTISSLEPEDFAVYYCQQYEFFGQGTKVQVDI

Columns and labels:
eOD-GT6 [1] = assay: SPR
eOD-GT6 [2] = assay: SPR; remark: listed apart in the source

Binder	Kd (eOD-GT6 [1]) [nM]	koff (eOD-GT6 [2]) [s⁻¹]
B1	16.2	0.00073
B2	16.4	0.000642
